The record followed here is US20230295324A1 (published 2023).

Assay [1] has as its target T1, human CD40 on CHO-K1 cells (CHO-K1/hu CD40) (human, UniProt P25942 21-277).
T1 construct: whole, on cells
Briefly: flow cytometry on CHO-K1/hu CD40 cells. As to the method:
(§1) This example is intended to investigate the specificity of in vitro binding of anti-human OX40 HCAb monoclonal antibodies by detecting 3 receptors of the TNF tumor necrosis factor receptor superfamily and ICOS by flow cytometry. The antibody binding assay at the cellular level was performed using a CHO-K1 cell strain overexpressing human OX40 (CHO-K1/hu OX40), a CHO-K1 cell strain overexpressing human CD40 (CHO-K1/hu CD40, Beijing KYinno, #KC-1286), a CHO-K1 cell strain overexpressing human 4-1BB (CHO-K1/hu 4-1BB, Genscript, #M00538) and an HEK293 cell strain overexpressing human ICOS (HEK293T/ICOS, Genscript, #KC-0210). Briefly, these cells were digested and resuspended in F12K or DMEM complete medium, and the cell density was adjusted to 1×10⁶ cells/mL. The cells were seeded in a 96-well V-bottom plate at 100 μL/well, and centrifuged, and then the supernatant was discarded. Then, the test antibodies diluted in a 3-fold gradient were added at 100 μL/well. The cells were incubated at 4° C. for 1 h away from light. Thereafter, the cells in each well were rinsed twice with 100 μL of pre-cooled PBS, and centrifuged at 500 g at 4° C. for 5 min, and then the supernatant was discarded. […] Finally, the cells in each well were resuspended in 200 μL of pre-cooled PBS, and the fluorescence signal values were read using NovoCyte flow cytometer (ACEA Biosciences).
On the technique in general: A flow cytometer gives signals particle by particle.

For assay [2], the target named is T2, human OX40 on cells (CHO-K1/hu OX40) (human, UniProt P43489 29-277).
T2 sequence (looked up): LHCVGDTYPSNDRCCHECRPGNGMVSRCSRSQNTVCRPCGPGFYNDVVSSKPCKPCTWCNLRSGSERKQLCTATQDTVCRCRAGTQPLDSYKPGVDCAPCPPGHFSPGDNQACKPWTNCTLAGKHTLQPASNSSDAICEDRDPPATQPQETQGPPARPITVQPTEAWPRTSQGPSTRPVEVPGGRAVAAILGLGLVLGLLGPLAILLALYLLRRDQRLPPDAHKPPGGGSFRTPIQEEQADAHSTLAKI
Briefly: cell-based or functional assay.

Assay [3] has as its target T2, human OX40 on cells (CHO-K1/hu OX40). Briefly: FACS, blocking of biotin-human OX40L on CHO-K1/hu OX40 cells.
Assay [4] concerns the target T3, human 4-1BB on CHO-K1 cells (CHO-K1/hu 4-1BB) (human, UniProt Q07011 24-255).
T3 construct: whole, on cells
Briefly: flow cytometry on CHO-K1/hu 4-1BB cells. As to the method:
as §1

T3 sequence (Q07011 24-255): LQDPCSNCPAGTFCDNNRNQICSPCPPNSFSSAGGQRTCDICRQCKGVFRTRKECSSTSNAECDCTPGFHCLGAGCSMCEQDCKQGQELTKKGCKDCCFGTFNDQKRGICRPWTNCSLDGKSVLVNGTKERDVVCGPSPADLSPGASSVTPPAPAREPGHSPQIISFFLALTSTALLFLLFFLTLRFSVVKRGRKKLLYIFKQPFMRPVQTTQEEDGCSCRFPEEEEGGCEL
T1 sequence (P25942 21-277): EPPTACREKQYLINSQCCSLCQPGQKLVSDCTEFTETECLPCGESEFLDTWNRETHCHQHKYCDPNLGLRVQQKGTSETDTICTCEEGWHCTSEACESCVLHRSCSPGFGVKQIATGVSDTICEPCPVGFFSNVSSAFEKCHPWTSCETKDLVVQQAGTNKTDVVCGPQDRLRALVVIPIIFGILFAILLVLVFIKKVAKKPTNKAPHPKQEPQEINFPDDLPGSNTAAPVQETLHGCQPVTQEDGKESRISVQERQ

B1: PR002067 (antibody, human IgG1, V domains shown)
VH: EVQLLESGGGLVQPGGSLRLSCAASGFTFSSYAMSWVRQAPGKGLEWVSAISGRGGSTFYADSVRGRFTISRDNSKNTLYLQMNSLRAEDTAMYYCVDGTTGTTDVDYWGQGTLVTVSS
notes: no light chain; also called anti-OX40 HCAb antibody
Take B1: the binding result in assay [1] is recorded as “no binding”. Further, in assay [2], the “EC50, HEK293/OX40/NF-kb luciferase reporter” value amounted to 5.37 nM and the “Maximum fluorescence signal value, HEK293/OX40/NF-kb luciferase reporter” value amounted to 137000 luminescence. In assay [3], the IC50 worked out at 166 nM and the “Maximum inhibition rate (%)” value stood at 64%. For the same molecule, the binding result in assay [4] was “no binding”.

Usually IC50 stands for the point on the concentration scale where inhibition reaches its midpoint.
